Reference: US20250011363A1, “OPTIMIZED SHORTENED PEPTIDE THAT BINDS TO ACETYLCHOLINE RECEPTOR, AND USE THEREOF” (SKINMED CO., LTD., priority 2021, published 2025)

Molecular target: acetylcholine receptor
Assay: SPR, receptor immobilized, peptide 10 uM

Row | Binding affinity (RU) | Binder
1 | 31 RU | KISGK [5mer-1090]
2 | 14 RU | RTTER [5mer-1085]
3 | 19 RU | RIWDR [5mer-1086]
4 | 11 RU | KKKKR [5mer-1087]
5 | 21 RU | RTHDR [5mer-1084]
6 | 31 RU | KYTGR [5mer-1079]
7 | 13 RU | RPNVR [5mer-1081]
8 | 29 RU | KTHHR [5mer-1089]
9 | 11 RU | RACFR [5mer-1082]
10 | 31 RU | KFSVR [5mer-1083]
11 | 16 RU | KAKKK [5mer-1088]
12 | 25 RU | RYTHK [5mer-1080]

More lines, now with the values behind:

Row | Binder | Binding affinity (RU)
13 | RFNKK [5mer-786] | 29 RU
14 | KKDHK [5mer-778] | 24 RU
15 | KFWIR [5mer-789] | 12 RU
16 | RKHIK [5mer-1075] | 26 RU
17 | RACEK [5mer-784] | 21 RU
18 | KEAWK [5mer-1078] | 19 RU
19 | KDNIR [5mer-787] | 17 RU
20 | RCDFR [5mer-776] | 17 RU
21 | KYPPR [5mer-779] | 21 RU
22 | KFEKK [5mer-1076] | 21 RU
23 | RYNWK [5mer-777] | 28 RU
24 | RIDPR [5mer-781] | 28 RU
25 | KADMK [5mer-1077] | 12 RU
26 | RDSHK [5mer-780] | 27 RU
27 | KPTIR [5mer-785] | 31 RU
28 | KYHGK [5mer-788] | 16 RU
29 | KANAR [5mer-782] | 32 RU
30 | REAGK [5mer-790] | 33 RU
31 | KCKVR [5mer-783] | 29 RU
